Assays:
[1] = biological target: T1, MBP-Cup N (Drosophila melanogaster, UniProt Q9VMA3 1-417); test: UV crosslinking; UV crosslinking: 16 mM HEPES pH 7.6, 50 mM K acetate, 1 mM Mg acetate, 0.8 mM ATP, 0.24 mg/ml yeast tRNA, 1 mM DTT, 10% glycerol, room temp; EMSA: deadenylation buffer with tRNA (omitted for A70 PABPC), 5% glycerol, 25 C; conditions: protein: recombinant; tags: N-terminal MBP; label: 5'-32P
T1 sequence: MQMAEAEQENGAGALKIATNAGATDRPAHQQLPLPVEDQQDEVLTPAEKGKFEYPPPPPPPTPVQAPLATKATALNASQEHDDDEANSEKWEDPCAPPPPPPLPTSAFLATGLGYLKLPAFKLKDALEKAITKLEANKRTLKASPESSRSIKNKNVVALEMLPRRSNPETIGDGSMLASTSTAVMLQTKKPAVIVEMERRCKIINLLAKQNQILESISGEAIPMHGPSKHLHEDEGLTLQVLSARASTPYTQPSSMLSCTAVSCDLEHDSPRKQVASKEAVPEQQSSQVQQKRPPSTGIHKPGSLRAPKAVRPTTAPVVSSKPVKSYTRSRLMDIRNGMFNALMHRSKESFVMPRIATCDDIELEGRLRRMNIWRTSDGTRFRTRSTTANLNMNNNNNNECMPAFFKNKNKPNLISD

[2] = biological target: T2, MBP-Cup M (Drosophila melanogaster, UniProt Q9VMA3 418-770); test: as above; conditions: protein: recombinant; tags: N-terminal MBP; label: 5'-32P
T2 sequence: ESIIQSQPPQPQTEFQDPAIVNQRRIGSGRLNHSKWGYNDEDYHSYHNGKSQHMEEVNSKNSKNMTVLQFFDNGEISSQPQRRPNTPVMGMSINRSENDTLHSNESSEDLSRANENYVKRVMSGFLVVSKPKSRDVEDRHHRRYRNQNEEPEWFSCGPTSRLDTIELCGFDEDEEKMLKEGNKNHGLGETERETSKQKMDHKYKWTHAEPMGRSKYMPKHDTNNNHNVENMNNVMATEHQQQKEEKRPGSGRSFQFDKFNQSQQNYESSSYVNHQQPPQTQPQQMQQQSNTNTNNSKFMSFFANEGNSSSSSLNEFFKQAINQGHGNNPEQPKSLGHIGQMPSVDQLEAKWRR

[3] = biological target: T3, MBP-Cup NM (Drosophila melanogaster, UniProt Q9VMA3 1-770); test: as above; conditions: protein: recombinant; tags: N-terminal MBP; label: 5'-32P
T3 sequence: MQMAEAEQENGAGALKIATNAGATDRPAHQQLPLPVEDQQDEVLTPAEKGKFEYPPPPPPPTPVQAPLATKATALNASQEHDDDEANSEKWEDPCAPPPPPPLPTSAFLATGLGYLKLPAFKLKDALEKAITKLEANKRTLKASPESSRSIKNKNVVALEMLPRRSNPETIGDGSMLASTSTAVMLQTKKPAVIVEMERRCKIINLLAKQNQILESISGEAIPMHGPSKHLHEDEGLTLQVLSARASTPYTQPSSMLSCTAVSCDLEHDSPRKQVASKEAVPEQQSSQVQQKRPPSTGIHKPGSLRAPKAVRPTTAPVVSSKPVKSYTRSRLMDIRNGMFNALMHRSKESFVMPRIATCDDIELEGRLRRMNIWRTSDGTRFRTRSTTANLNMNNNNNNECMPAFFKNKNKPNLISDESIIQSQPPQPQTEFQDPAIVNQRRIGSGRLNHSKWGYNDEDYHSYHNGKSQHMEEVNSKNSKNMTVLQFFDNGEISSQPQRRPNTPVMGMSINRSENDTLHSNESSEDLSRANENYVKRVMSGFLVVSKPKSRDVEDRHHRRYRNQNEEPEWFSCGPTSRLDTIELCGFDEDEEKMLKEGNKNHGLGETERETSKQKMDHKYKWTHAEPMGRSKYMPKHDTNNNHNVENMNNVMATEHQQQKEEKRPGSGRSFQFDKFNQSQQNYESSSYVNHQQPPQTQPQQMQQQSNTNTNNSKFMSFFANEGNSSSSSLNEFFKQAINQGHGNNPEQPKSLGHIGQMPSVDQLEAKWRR

[4] = biological target: T4, MBP-Cup C (Drosophila melanogaster, UniProt Q9VMA3 771-1117); test: as above; conditions: protein: recombinant; tags: N-terminal MBP; label: 5'-32P
T4 sequence: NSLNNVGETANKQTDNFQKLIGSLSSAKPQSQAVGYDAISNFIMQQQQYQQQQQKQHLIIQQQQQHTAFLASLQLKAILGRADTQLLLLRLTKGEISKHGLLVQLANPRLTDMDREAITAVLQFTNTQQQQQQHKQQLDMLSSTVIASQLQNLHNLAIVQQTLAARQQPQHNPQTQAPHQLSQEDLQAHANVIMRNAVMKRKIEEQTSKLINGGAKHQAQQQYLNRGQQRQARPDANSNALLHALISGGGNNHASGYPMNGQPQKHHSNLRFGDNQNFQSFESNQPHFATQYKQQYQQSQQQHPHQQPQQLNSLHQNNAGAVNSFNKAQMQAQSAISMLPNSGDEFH

[5] = biological target: T5, MBP-Cup MC (Drosophila melanogaster, UniProt Q9VMA3 418-1117); test: as above; conditions: protein: recombinant; tags: N-terminal MBP; label: 5'-32P
T5 sequence: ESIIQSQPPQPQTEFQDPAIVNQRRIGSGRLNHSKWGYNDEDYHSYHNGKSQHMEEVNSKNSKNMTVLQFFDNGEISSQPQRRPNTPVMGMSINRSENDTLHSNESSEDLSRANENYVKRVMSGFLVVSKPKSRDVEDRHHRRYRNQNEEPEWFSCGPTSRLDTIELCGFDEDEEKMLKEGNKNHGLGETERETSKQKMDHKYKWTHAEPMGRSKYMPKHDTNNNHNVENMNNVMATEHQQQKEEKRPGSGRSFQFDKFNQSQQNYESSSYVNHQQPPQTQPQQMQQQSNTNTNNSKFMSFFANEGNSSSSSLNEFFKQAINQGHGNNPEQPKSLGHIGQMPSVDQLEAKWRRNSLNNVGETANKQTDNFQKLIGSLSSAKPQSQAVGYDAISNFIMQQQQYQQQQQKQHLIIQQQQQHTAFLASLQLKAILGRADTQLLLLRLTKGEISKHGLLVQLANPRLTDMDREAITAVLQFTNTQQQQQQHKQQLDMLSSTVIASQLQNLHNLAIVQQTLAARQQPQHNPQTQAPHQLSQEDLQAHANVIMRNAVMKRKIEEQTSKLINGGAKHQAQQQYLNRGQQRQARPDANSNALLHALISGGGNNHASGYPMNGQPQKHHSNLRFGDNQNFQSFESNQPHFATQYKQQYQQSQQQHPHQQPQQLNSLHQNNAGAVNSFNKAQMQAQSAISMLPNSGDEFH

[6] = biological target: T6, His8-MBP-Cup C (Drosophila melanogaster, UniProt Q9VMA3 771-1117); test: UV crosslinking + Ni-NTA pull-down; 6 M urea wash; UV crosslinking: 16 mM HEPES pH 7.6, 50 mM K acetate, 1 mM Mg acetate, 0.8 mM ATP, 0.24 mg/ml yeast tRNA, 1 mM DTT, 10% glycerol, room temp; EMSA: deadenylation buffer with tRNA (omitted for A70 PABPC), 5% glycerol, 25 C; conditions: protein: recombinant; tags: N-terminal His8-MBP; label: 5'-32P
T6 sequence: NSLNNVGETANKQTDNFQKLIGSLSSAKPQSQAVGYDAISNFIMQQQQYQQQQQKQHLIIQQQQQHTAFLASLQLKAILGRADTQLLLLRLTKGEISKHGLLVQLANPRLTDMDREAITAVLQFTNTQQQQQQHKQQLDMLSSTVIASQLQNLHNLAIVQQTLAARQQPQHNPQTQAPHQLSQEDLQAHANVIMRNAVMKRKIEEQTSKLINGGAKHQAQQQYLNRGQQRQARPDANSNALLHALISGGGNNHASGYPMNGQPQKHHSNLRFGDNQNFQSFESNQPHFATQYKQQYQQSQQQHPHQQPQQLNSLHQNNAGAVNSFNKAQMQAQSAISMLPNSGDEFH

[7] = biological target: T7, His8-MBP-Cup MC (Drosophila melanogaster, UniProt Q9VMA3 418-1117); test: as above; conditions: protein: recombinant; tags: N-terminal His8-MBP; label: 5'-32P
T7 sequence: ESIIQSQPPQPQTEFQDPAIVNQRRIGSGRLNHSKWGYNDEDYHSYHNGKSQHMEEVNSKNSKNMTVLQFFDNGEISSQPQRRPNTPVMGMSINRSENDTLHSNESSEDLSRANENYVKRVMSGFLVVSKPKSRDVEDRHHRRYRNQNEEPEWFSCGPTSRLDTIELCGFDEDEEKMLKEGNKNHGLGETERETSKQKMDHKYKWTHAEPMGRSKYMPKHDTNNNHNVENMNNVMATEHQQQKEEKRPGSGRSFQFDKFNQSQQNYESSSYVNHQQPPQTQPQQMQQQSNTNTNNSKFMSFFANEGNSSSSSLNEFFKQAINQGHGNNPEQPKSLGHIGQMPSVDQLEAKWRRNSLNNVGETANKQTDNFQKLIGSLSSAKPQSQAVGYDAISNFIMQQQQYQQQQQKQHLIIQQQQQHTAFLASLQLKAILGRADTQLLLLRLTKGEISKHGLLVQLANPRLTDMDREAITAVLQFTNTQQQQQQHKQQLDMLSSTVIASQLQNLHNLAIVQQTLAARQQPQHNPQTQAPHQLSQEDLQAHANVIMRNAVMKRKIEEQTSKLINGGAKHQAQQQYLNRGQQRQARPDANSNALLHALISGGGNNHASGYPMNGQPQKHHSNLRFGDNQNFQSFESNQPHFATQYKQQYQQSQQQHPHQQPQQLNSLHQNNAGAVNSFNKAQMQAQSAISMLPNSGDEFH

[8] = biological target: T8, His8-MBP-Cup full length (Drosophila melanogaster, UniProt Q9VMA3 1-1117); test: as above; conditions: protein: recombinant; tags: N-terminal His8-MBP; label: 5'-32P
T8 sequence: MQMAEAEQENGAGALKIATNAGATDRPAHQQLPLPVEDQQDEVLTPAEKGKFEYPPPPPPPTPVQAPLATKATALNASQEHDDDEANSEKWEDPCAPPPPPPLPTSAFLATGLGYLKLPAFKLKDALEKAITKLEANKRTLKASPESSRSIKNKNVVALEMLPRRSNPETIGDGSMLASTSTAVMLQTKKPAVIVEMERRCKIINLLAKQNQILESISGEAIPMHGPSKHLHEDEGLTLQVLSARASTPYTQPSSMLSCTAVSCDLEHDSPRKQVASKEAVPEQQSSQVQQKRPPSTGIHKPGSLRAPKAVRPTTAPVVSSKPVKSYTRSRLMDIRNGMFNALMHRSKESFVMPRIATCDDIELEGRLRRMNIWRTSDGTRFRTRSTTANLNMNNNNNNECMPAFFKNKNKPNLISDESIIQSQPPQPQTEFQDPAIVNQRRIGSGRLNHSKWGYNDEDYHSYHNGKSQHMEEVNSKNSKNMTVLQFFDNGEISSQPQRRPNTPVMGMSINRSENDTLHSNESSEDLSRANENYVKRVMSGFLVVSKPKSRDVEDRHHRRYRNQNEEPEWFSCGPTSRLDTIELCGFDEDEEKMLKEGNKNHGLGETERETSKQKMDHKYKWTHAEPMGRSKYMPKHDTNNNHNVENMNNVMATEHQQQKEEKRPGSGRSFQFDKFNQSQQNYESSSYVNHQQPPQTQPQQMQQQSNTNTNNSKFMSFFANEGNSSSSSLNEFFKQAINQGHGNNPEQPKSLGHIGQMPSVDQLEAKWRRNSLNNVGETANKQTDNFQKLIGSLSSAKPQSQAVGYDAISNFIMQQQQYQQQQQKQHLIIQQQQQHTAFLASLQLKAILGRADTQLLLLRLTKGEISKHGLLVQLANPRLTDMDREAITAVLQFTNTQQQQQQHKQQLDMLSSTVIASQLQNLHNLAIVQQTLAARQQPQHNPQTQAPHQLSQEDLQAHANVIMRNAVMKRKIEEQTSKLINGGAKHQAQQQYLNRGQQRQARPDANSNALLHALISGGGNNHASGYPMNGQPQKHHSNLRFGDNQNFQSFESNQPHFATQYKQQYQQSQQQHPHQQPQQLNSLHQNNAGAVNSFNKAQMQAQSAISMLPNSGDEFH

[9] = biological target: T9, His8-MBP-Cup M (Drosophila melanogaster, UniProt Q9VMA3 418-770); test: as above; conditions: protein: recombinant; tags: N-terminal His8-MBP; label: 5'-32P
T9 sequence: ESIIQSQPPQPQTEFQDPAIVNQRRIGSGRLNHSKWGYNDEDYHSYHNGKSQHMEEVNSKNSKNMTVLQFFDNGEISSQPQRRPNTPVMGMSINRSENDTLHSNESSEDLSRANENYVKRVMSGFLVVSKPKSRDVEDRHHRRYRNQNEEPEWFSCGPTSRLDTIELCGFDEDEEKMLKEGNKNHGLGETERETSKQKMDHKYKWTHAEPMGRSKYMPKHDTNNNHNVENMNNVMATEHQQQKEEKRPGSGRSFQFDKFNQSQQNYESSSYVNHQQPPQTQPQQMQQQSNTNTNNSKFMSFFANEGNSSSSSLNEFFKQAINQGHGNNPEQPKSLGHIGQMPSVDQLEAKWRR

Measured: binding result

GGGUUUAGUGCGCACGUG (ssRNA) [18nt RNA oligonucleotide]
binds: all assays above
